Data from article PMC11407766, “OsNF-YB7 inactivates OsGLK1 to inhibit chlorophyll biosynthesis in rice embryo”.

T1: OsNF-YB7-His (Oryza sativa, UniProt A6BLV7 1-254)
T1 sequence: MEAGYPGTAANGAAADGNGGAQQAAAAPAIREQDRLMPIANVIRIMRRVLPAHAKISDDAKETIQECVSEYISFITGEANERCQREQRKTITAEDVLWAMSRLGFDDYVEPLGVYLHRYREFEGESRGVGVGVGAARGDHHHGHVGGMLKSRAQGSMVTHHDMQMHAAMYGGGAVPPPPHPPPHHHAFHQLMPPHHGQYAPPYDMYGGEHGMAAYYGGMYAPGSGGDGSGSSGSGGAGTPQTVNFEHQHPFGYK

T2: OsGLK1-MBP (Oryza sativa, UniProt Q5Z5I4 1-455)
T2 sequence: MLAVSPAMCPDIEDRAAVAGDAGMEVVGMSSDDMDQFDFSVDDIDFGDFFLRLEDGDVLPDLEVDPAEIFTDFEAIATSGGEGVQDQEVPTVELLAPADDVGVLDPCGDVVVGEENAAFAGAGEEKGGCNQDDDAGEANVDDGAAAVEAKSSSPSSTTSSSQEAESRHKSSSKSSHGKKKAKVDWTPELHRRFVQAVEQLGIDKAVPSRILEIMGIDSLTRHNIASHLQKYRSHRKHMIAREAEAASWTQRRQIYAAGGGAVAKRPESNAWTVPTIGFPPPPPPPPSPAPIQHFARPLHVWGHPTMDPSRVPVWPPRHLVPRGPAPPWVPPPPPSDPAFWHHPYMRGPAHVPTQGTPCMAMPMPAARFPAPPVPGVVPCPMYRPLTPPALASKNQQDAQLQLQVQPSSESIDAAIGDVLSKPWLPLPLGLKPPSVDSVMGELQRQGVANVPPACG

B1: OsGLK1 promoter probe (dsDNA)
DNA 1: TTTTGCAGAAGCGACCAAGCTGCACTTGCGCTCGCGGACAAGGCAACCCA
DNA 2: TGGGTTGCCTTGTCCGCGAGCGCAAGTGCAGCTTGGTCGCTTCTGCAAAA
B2: OsLHCB4 promoter probe (dsDNA)
DNA 1: CCCAATCCCAGCCCTCCACGTGTCACCAACCCCATGGC
DNA 2: GCCATGGGGTTGGTGACACGTGGAGGGCTGGGATTGGG
B3: OsPORA promoter probe (dsDNA)
DNA 1: TACGAAAAAATATCCCACCACGTGTCGCTTTCACAGGACAAT
DNA 2: ATTGTCCTGTGAAAGCGACACGTGGTGGGATATTTTTTCGTA

Tests used:
OsNF-YB7-His = molecular target: T1, OsNF-YB7-His; experiment: EMSA; Beyotime EMSA/Gel-Shift kit (GS009), manufacturer's conditions; 2 or 4 uM protein in Figure 6G; buffer, salt, pH and temperature not stated; details: protein: recombinant, tags: His (pET-28a), blunt
OsGLK1-MBP = molecular target: T2, OsGLK1-MBP; experiment: as above; details: protein: recombinant; tags: MBP (pMAL-c5X); label: biotin (3' hydroxyl end of both strands); blunt
[1] = label: biotin (3' hydroxyl end of both strands)

Row | Binder | binding result (OsNF-YB7-His; label: biotin) | binding result (OsNF-YB7-His; [1]) | binding result (OsGLK1-MBP)
1 | B1 | no binding |  | 
2 | B2 |  | binds | binds
3 | B3 |  | binds | binds
